Measurements reported in patent US20220025060A1 (JIANGSU HENGRUI MEDICINE, published 2022).

Target: T1, His-tagged human CD40 (h-CD40-his) recombinant protein (human, UniProt P25942 21-193)
T1 construct: range 21-193; Commercial reagent from Acrobiosystems; also called human CD40-his; not shown: His tag
Test: Biacore SPR
Excerpt: According to the method described in the instruction available from Human Anti-capture Kit (Cat.# BR-1008-39, GE), human anti-capture antibody was covalently coupled to biosensing chip CM5 of the Biacore instrument (Biacore X100, GE), a certain amount of chimeric or humanized antibodies to be tested was affinity-captured, and then a series of concentration gradients of CD40 antigen (CD40 antigen purchased from Acrobiosystems) flowed through the surface of the chip. Biacore instrument (Biacore X100, GE) was used to detect the reaction signal in real-time, thus to obtain the association and dissociation curves. After each cycle of dissociation was completed, the biochip was washed and regenerated with a regeneration solution provided by the Human Anti-capture Kit. The amino coupling kit used in the test was purchased from GE (Cat. # BR-1000-50, GE), and HBS-EP+10× buffer solution (Cat. # BR-1006-69, GE) was diluted to 1×(pH 7.4) with double distilled water.
The data obtained from the test was fitted against a (1:1) Binding model using BiacoreX100 evaluation software2.0 GE, and the affinity value was obtained, as shown in Table 10 and Table 11.

T1 sequence (P25942 21-193 limits assumed): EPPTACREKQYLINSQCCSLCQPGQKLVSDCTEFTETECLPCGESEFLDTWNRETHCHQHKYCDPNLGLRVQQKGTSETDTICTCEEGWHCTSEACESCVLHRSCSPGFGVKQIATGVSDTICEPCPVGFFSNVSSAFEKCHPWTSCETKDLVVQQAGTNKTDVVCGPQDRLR

B1: humanized antibody hu9E5 (H1c heavy chain, L1a light chain) (antibody, human IgG1, kappa, V domains shown)
VH: QVQLVQSGAEVKKPGASVKVSCKASGYILTTYWITWVRQAPGQGLEWMGDIHPGSGSTKYNEKFKSRVTLTVDTSISTAYMELSRLRSEDTAVYYCARRDYWGQGTTVTVSS
VL: DIVMTQSPLSLPVTPGEPASISCRSSQNIVNSQGNTYLEWYLQKPGQSPQLLIYKVTNRFSGVPDRFSGSGSGTDFTLKISRVEAEDVGVYYCFQASLVPWTFGGGTKVEIKR
notes: also called Hu9E5-25
  fold affinity against the Alligator control: ≥ 10 times
  fold affinity against the Pfizer Control: ≥ 4 times
